The results in this text go back to article PMC8883494, “Conformational trapping of an ABC transporter in polymer lipid nanoparticles” (Biochemical Journal, 2021).

The data set deals with the molecule itself. Nature of the data set: SAXS; Sav1866-SMALPs from the 12 ml SEC fraction, undiluted sample, 20 mM Tris pH 8, 150 mM NaCl; DAMMIF models with P1 and P2 symmetry fitted with the crystal structure 2HYD.

What is called stoichiometry N is a count of units in the complex or per binding partner.

B1: Staphylococcus aureus ABC transporter Sav1866 in styrene-maleic acid lipid particles (natural protein)
chain: MIKRYLQFVKPYKYRIFATIIVGIIKFGIPMLIPLLIKYAIDGVINNHALTTDEKVHHLTIAIGIALFIFVIVRPPIEFIRQYLAQWTSNKILYDIRKKLYNHLQALSARFYANNQVGQVISRVINDVEQTKDFILTGLMNIWLDCITIIIALSIMFFLDVKLTLAALFIFPFYILTVYVFFGRLRKLTRERSQALAEVQGFLHERVQGISVVKSFAIEDNEAKNFDKKNTNFLTRALKHTRWNAYSFAAINTVTDIGPIIVIGVGAYLAISGSITVGTLAAFVGYLELLFGPLRRLVASFTTLTQSFASMDRVFQLIDEDYDIKNGVGAQPIEIKQGRIDIDHVSFQYNDNEAPILKDINLSIEKGETVAFVGMSGGGKSTLINLIPRFYDVTSGQILIDGHNIKDFLTGSLRNQIGLVQQDNILFSDTVKENILLGRPTATDEEVVEAAKMANAHDFIMNLPQGYDTEVGERGVKLSGGQKQRLSIARIFLNNPPILILDEATSALDLESESIIQEALDVLSKDRTTLIVAHRLSTITHADKIVVIENGHIVETGTHRELIAKQGAYEHLYSIQNL
notes: Sav1866, ABC transporter (half-transporter, homodimer) of Staphylococcus aureus; expressed from pet-19b:sav1866; M from chemical composition 64 863 Da; the undigested band at 65 kDa is called full-length Sav1866; Embedded in a SMALP nanoparticle with E. coli lipids; The DNA construct was a gift; its exact limits and linker are not described; also called Sav1866-SMALPs; Sav1866-10His; source: E. …
Regarding B1, the “stoichiometry N” value came to 2.
